Assay results published in article PMC6685158.

Target: NKG2D receptor on primary human NK cells (human (endogenous in primary NK cells)) (UniProt P26718)
Chain of UniProt P26718 (P26718 whole entry): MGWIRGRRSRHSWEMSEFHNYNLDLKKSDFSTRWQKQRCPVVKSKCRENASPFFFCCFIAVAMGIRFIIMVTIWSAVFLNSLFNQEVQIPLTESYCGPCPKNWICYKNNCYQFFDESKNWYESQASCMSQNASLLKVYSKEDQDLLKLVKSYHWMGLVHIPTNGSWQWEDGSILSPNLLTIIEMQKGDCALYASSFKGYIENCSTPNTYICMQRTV

NK cell cytolytic activity (7-AAD uptake of CD56- target cells), fresh NK cells with target cells 4 h at 10 to 1 effector to target ratio; parental C1R control approximately 15%: 40%
Substance: Full-length human MICA*002 on C1R-MICA*002 cells (from UniProt Q29983 24-383) (ligand)
